Reference: article PMC2854097 (Molecular Biology of the Cell, 2010)

Biological target: T1, GST-p23/Tmp21 (aa 1-219), from pEBG-p23/Tmp21 (full-length) (UniProt P49755 32-219)
T1 sequence (looked up): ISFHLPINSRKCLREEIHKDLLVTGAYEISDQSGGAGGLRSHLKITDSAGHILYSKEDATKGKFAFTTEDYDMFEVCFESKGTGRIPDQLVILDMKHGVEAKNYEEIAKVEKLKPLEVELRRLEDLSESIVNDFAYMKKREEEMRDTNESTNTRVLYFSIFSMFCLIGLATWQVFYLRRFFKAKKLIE
Assay: pull-down

- fold increase in association with PMA against vehicle (densitometry): ~7 fold
B1: HA-β2-chimaerin (full-length) (natural protein, UniProt P52757-1 1-468, looked up)
chain: MAASSNSSLSGSSVSSDAEEYQPPIWKSYLYQLQQEAPRPKRIICPREVENRPKYYGREFHGIISREQADELLGGVEGAYILRESQRQPGCYTLALRFGNQTLNYRLFHDGKHFVGEKRFESIHDLVTDGLITLYIETKAAEYISKMTTNPIYEHIGYATLLREKVSRRLSRSKNEPRKTNVTHEEHTAVEKISSLVRRAALTHNDNHFNYEKTHNFKVHTFRGPHWCEYCANFMWGLIAQGVRCSDCGLNVHKQCSKHVPNDCQPDLKRIKKVYCCDLTTLVKAHNTQRPMVVDICIREIEARGLKSEGLYRVSGFTEHIEDVKMAFDRDGEKADISANVYPDINIITGALKLYFRDLPIPVITYDTYSKFIDAAKISNADERLEAVHEVLMLLPPAHYETLRYLMIHLKKVTMNEKDNFMNAENLGIVFGPTLMRPPEDSTLTTLHDMRYQKLIVQILIENEDVLF
